5 molecules from patent US9920105B2, “Human ferritin-derived fusion polypeptide” (Kyungpook National University Industry-Academic Cooperation …, priority 2013, dated 2018) can be followed below.

In experiment [1] the test system is A549 cells overexpressing IL-4 receptor. Put plainly: Cell binding test using flow cytometry (FACS). The format is cell-based, human. As to the method: First, A549 cells were grown to about 80% confluence in a 100 mm-diameter plate. The plated cells were washed twice with PBS, and detached from the plate using Trypsin/EDTA. Then, 2×10^5/100 μl cells were suspended in PBS containing 1% bovine serum albumin (BSA), and incubated at 4° C. for 30 min. […] The above blocking procedure was performed on one group, and was not performed on the other group, and the following experiment was performed on both groups. After washing twice with PBS, the ferritin without AP1 insertion and the AP1-inserted ferritin were diluted to 400 nM in buffer (20 mM Tris, 150 mM NaCl, 180 mM Histidine), and then allowed to bind at 4° C. for 20 min. After washing twice with PBS, the ferritin light chain antibody (D-18, sc-14420) was diluted to 1:400 in PBS buffer containing 1% BSA, and incubated in ice for 30 min. After washing twice with PBS, Alexa Fluor 488 donkey anti-goat IgG (H+L) antibody (invitrogen, USA) was diluted to 1:200 in PBS containing 1% BSA, and incubated in ice for 30 min. After washing twice with PBS, the cells were suspended in 500 ul PBS, and analyzed with FACS.
First, A549 cells were grown to about 80% confluence in a 100 φ plate. The plated cells were washed twice with PBS, and detached from the plate using Trypsin/EDTA. […] After washing twice with PBS, the cells were suspended in 500 ul PBS, and then analyzed with FACS.

For experiment [2] the test system is unchanged. The experiment is described as follows: Cell binding test using confocal microscope. The class given is cell-based. The note with it: 400 nM, 4° C., 20 min, FIG. 6. As to the method:
First, A549 cells were grown to about 80% confluence in a 100 mm-diameter plate. The plated cells were washed twice with PBS, and detached from the plate using Trypsin/EDTA. Then, 2×10^5/100 ul cells were suspended in PBS containing 1% bovine serum albumin (BSA), and incubated at 4° C. for 30 min. After washing twice with PBS, the ferritin without AP1 insertion and the AP1-inserted ferritin were diluted to 400 nM in buffer (20 mM Tris, 150 mM NaCl, 180 mM Histidine), and then allowed to bind at 4° C. for 20 min. After washing twice with PBS, the ferritin light chain antibody (D-18, sc-14420) was diluted to 1:400 in PBS buffer containing 1% BSA, and incubated in ice for 30 min. After washing twice with PBS, Alexa Fluor 488 donkey anti-goat IgG (H+L) antibody was diluted to 1:200 in PBS containing 1% BSA, and then incubated in ice for 30 min. After washing twice with PBS, 4% paraformaldehyde (PFA) was added for cell fixation, and cells in suspension were added in the 8-well slide chamber. The cells were attached in the chamber by centrifugation at 1000 rpm for 10 min.
After washing twice with PBS, the cells were stained by incubation with 4′,6-diamidino-2-phenylindole (DAPI) for 3 min in dark place, mounted in antifade reagent to close a cover glass, and analyzed by Z-stack type confocal microscopy.

Experiment [3] addresses integrin alphavbeta3 (Homo sapiens, UniProt P05106+P06756). The experiment is described as follows: SPR analysis of binding affinity to integrin alphavbeta3. The conditions noted are these: FIG. 16. As to the method:
Then, 40 mM N-(3-dimethylaminopropyl)-N′-ethylcarbodiimide hydrochloride (EDC)/10 mM N-hydroxy-succinimide (NHS) were allowed to flow over each channel (left, right) of carboxymethyl dextran chip for 7 min for surface activation, and then 200 ul of the prepared alphavbeta3 protein was allowed to flow over the left channel for 7 min for immobilization. Here, the right channel was used as a reference channel. In the two channels, left channel and right channel, 1M ethanolamine (pH 8.5) solution was allowed to flow over the unreacted surface for 7 min for blocking, so as to reduce non-specific adsorption thereof. All test procedures were conducted at a temperature of 25° C. and the flow rate was 25 ul/min.
The buffer (10 mM Hepes pH 7.4, 150 mM NaCl, 180 mM Histidine, 1 mM MgCl2, 0.005% Tween 20) was used through filtering and degassing. The wild type ferritin and the RGD-inserted ferritins were allowed to flow over at concentrations of 0.65 nM, 1.3 nM, 2.6 nM, 5.2 nM, 10.4 nM, 20.8 nM, and 41.6 nM, respectively, for 3 min, and the same buffer was allowed to flow over for 3 min. For regeneration, 2 M NaCl was allowed to flow over for 1 min to wash the proteins remaining without dissociation. […]
In the binding graph, the RU value expressing the amount of bound protein was measured by subtracting the blank (buffer) value and reference channel (right channel) value, using Scrubber software.

In experiment [4] the target is T1, IL-4 receptor (Homo sapiens, UniProt P24394).
T1 sequence (P24394 26-825): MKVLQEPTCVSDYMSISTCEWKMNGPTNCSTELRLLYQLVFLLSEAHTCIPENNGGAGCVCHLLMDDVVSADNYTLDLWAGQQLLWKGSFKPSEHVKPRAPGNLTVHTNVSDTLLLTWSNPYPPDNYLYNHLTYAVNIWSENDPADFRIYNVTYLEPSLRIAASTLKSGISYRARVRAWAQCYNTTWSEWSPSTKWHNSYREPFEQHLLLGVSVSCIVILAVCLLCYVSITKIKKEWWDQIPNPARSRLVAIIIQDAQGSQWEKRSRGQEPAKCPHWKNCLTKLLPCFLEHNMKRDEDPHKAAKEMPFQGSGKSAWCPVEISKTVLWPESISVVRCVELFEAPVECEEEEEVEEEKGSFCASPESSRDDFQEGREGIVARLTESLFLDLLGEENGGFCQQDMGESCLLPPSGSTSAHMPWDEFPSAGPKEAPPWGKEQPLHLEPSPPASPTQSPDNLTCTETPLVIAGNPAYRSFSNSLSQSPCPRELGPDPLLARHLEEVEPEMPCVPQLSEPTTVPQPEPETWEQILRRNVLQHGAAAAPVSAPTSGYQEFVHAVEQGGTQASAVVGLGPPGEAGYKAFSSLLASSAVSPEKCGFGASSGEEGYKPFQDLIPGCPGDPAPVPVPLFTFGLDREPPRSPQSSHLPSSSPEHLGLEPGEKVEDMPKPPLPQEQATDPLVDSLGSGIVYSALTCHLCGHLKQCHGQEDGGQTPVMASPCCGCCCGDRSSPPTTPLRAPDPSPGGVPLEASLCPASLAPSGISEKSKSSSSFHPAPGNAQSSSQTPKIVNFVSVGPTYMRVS
Put plainly: Surface plasmon resonance (SPR) analysis of binding affinity to immobilised IL-4 receptor. The note with it: Table 4. As to the method: Here, the right channel was used as a reference channel. In the two channels, left channel and right channel, 1M ethanolamine (pH 8.5) solution was allowed to flow over the unreacted surface for 7 min for blocking, so as to reduce non-specific adsorption thereof. All test procedures were conducted at a temperature of 25° C. and the flow rate was 25 ul/min.
The buffer (20 mM Tris-HCl pH 8.0, 150 mM NaCl, 180 mM Histidine, 62.5 ug/ml BSA, 0.005% Tween 20) was used through filtering and degassing. The wild type ferritin and the AP1-inserted ferritins were allowed to flow over at concentrations of 0.65 nM, 1.3 nM, 2.6 nM, 5.2 nM, 10.4 nM, 20.8 nM, and 41.6 nM for 3 min, and the same buffer was allowed to flow over for 3 min. For regeneration, 2 M NaCl was allowed to flow over for […] to wash the proteins remaining without dissociation. Specific binding values, obtained by subtracting the right channel value from the left channel value, in the concentration ranging from 0.65 nM to 10.4 nM, were plotted on a graph.
AP1 peptide was allowed to flow over at concentrations of 3.125 uM, 6.25 uM, 12.5 uM, 25 uM, and 50 uM for 3 min, and the same buffer was allowed to flow over for 3 min. For regeneration, 2 M NaCl was allowed to flow over for 1 min to wash the proteins remaining without dissociation. Specific binding values, obtained by subtracting the right channel value from the left channel value, in the respective concentrations, were plotted on a graph (see FIG. 8).
In the binding graph, the RU value expressing the amount of bound protein was measured by subtracting the blank (buffer) value and reference channel (right channel) value, using Scrubber software. The KD value was obtained from the binding RU (Req) values measured at the respective concentrations using KaleidaGraph software.
The experiment was conducted like in example <5-1>, and RU values shown for concentrations ranging from 0.65 nM to 41.6 nM were plotted on a graph using GraphPad prism 4 program.
For comparison of binding affinity between FTL-AP1 and FTL-AP1_AP1, surface plasmon resonance analysis was conducted. Analysis was conducted by the same method as in Example <5-1>. The binding of FTL-AP1 was analyzed at concentrations of 0.26 nM, 1.041 nM, 2.083 nM, and 4.166 nM, respectively, and the binding of FTL-AP1_AP1 was analyzed at concentrations of 0.520 nM, 1.041 nM, 2.083 nM, and 4.166 nM, respectively.

Sequence of integrin alphavbeta3 (P06756 31-1048): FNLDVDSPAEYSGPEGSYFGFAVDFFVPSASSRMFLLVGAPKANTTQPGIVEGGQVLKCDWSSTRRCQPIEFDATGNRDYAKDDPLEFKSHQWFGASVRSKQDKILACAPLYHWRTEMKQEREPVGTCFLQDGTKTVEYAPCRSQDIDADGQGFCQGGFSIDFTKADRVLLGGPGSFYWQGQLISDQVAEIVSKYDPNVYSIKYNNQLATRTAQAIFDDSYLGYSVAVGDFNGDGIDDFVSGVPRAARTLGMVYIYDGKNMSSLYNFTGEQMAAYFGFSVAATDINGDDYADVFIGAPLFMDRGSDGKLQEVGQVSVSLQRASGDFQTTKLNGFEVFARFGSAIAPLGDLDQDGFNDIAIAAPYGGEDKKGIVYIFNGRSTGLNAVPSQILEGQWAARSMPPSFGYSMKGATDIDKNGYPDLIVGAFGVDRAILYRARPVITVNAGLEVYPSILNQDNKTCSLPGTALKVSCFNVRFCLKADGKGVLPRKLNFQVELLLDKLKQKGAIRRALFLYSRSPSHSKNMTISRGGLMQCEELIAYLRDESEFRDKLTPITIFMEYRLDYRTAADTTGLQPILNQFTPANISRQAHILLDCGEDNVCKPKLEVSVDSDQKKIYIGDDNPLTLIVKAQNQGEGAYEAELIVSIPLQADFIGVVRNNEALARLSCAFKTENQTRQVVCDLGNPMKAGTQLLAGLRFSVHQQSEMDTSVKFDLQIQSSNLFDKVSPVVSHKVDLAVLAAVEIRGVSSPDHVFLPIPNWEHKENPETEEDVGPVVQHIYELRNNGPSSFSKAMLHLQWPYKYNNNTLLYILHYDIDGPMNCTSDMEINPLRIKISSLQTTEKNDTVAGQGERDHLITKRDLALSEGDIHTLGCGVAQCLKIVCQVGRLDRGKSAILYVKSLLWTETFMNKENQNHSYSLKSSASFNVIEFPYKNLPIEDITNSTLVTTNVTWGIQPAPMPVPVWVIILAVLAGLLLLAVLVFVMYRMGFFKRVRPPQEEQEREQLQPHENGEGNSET
Sequence of integrin alphavbeta3 (P05106 27-788): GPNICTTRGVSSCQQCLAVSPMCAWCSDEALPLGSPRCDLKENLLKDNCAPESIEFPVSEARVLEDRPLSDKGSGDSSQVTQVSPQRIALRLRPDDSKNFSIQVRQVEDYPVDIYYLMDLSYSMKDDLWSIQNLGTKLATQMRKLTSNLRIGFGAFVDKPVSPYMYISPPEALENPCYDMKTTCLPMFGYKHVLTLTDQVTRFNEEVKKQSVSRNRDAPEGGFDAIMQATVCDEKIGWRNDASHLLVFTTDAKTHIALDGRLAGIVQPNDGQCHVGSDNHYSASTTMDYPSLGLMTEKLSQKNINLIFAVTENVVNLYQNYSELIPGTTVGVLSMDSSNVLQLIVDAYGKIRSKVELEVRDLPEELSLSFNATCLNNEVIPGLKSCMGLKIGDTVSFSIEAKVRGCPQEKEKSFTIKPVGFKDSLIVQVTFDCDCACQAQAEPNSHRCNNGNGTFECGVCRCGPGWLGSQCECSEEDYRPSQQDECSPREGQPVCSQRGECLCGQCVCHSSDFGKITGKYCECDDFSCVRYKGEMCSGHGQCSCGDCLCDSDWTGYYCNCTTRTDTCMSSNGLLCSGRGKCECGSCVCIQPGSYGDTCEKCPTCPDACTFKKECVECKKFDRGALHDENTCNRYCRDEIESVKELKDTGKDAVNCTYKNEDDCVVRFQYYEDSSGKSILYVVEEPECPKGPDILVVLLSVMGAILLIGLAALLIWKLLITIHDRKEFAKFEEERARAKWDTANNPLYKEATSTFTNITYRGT

For the molecule “wild type ferritin: human ferritin light chain (SEQ ID NO: 1) without AP1 insertion, control cage [reference compound]”, the “binding to IL-4 receptor in A549 cells (FACS)” value in experiment [1] (400 nM, 4° C., 20 min, FIG. 5) was “did not bind to IL-4 receptor”. Further, in experiment [2], the “binding to A549 cells / cell membrane (confocal microscopy)” value is “did not bind to A549 cells”.

B1: FTL-RGD-AP1: human ferritin light chain with inserted RGD and AP1 peptides (AP1 exchanged with RGD relative to FTL-AP1_RGD) (protein)
chain: MRGDGGGSGMSSQIRQNYSTDVEAAVNSLVNLYLQASYTYLSLGFYFDRDDVALEGVSHFFRELAEEKREGYERLLKMQNQRGGRALFQDIKKPAEDEWGKTPDAMKAAMALEKKLNQALLDLHALGSARTDPHLCDFLETHFLDEEVKLIKKMGDHLTNLHRGSRKRLDRNGGPEAGLGEYLFERLTLKHD
modifications: left off: small tags and cut ends
For B1, the “binding to integrin alphavbeta3” value in experiment [3] is recorded as “bound to integrin alphavbeta3 in a concentration-dependent manner”.

B2: GG-AP1S: human ferritin light chain with AP1S (RKRLDRN) inserted in GG cassette of the fourth loop; named FTL-AP1 in Examples 6-9 (protein)
chain: MSSQIRQNYSTDVEAAVNSLVNLYLQASYTYLSLGFYFDRDDVALEGVSHFFRELAEEKREGYERLLKMQNQRGGRALFQDIKKPAEDEWGKTPDAMKAAMALEKKLNQALLDLHALGSARTDPHLCDFLETHFLDEEVKLIKKMGDHLTNLHRGSRKRLDRNGGPEAGLGEYLFERLTLKHD
modifications: left off: small tags and cut ends
Regarding B2, in experiment [4], the Koff is given as 1.25 ± 0.4 × 10^−3 S^−1 and the Kon is 1.22 ± 0.64 × 10^6 M^−1S^−1.

B3: FTL-GRGDSP-AP1: ferritin having inserted GRGDSP and AP1 peptides (protein)
chain: MGRGDSPGGGSGMSSQIRQNYSTDVEAAVNSLVNLYLQASYTYLSLGFYFDRDDVALEGVSHFFRELAEEKREGYERLLKMQNQRGGRALFQDIKKPAEDEWGKTPDAMKAAMALEKKLNQALLDLHALGSARTDPHLCDFLETHFLDEEVKLIKKMGDHLTNLHRGSRKRLDRNGGPEAGLGEYLFERLTLKHD
modifications: left off: small tags and cut ends
notes: ferritin having inserted GRGDSP and AP1 peptides
B3: the “binding to integrin alphavbeta3” value in experiment [3] is “bound to integrin alphavbeta3 in a concentration-dependent manner”.

B4: FTL-AP1_AP1: fusion polypeptide in which AP1S was additionally fused to N-terminal of FTL_GG-AP1S (protein)
chain: MRKRLDRNGGGSGMSSQIRQNYSTDVEAAVNSLVNLYLQASYTYLSLGFYFDRDDVALEGVSHFFRELAEEKREGYERLLKMQNQRGGRALFQDIKKPAEDEWGKTPDAMKAAMALEKKLNQALLDLHALGSARTDPHLCDFLETHFLDEEVKLIKKMGDHLTNLHRGSRKRLDRNGGPEAGLGEYLFERLTLKHD
modifications: left off: small tags and cut ends
Take B4: in experiment [4], the Koff is listed as 3.8 × 10^−5 S^−1 and the Kon is reported as 8.26 × 10^5 M^−1S^−1. Besides, the “amount bound to IL-4 receptor compared with FTL-AP1 (FACS)” value in experiment [1] (at 400 nM and 200 nM, FIG. 13) is listed as “larger amount than FTL-AP1”.
